Results as given in PMC3874172 (Nucleic Acids Research, 2013).

T1: GST-ETO (UniProt Q06455-2 1-577)
T1 sequence (looked up): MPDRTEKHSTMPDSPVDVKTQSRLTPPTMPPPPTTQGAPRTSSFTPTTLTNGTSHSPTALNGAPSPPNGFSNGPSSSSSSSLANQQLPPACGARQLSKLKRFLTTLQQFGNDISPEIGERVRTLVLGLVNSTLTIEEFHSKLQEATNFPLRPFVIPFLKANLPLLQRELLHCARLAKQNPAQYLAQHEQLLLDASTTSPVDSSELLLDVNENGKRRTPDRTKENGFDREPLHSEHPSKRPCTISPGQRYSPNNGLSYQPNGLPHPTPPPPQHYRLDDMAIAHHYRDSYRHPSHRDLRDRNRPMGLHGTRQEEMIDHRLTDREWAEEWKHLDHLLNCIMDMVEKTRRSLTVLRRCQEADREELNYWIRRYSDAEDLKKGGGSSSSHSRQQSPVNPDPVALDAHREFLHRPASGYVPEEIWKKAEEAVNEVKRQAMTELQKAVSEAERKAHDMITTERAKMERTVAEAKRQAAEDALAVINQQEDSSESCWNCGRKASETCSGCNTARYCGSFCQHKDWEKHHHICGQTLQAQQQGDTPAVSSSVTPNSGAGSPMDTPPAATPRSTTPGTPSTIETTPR


Legend:
GST-ETO [1] = target: GST-ETO (UniProt Q06455); assay: pull-down
GST-ETO [2] = target: T1, GST-ETO; assay: pull-down

Row | fold reduction of binding relative to E2A-AD (GST-ETO [1]) [fold] | fold reduction of binding relative to E2A-AD (GST-ETO [2]) [fold] | Molecule
1 | 4 |  | isolated DES domain of E2A, in vitro translated Gal4-DBD fusion (domain or fragment)
2 |  | ~24 | E2A-AD1 (amino acids 1-90), in vitro translated (domain or fragment, UniProt P15923 1-90, looked up, 35S label) MNQPQRMAPVGTDKELSDLLDFSMMFPLPVTNGKGRPASLAGAQFGGSGLEDRPSSGSWGSGDQSSSSFDPSRTFSEGTHFTESHSSLSS
